We go through 3 molecules from patent US20240409599A1 (Genentech, published 2024).

Assay [1] deals with T1, Human IL-18Rα extracellular domain (human, UniProt Q13478 22-329, biotinylated (site not stated)).
T1 construct: also called IL-18 receptor
T1 sequence: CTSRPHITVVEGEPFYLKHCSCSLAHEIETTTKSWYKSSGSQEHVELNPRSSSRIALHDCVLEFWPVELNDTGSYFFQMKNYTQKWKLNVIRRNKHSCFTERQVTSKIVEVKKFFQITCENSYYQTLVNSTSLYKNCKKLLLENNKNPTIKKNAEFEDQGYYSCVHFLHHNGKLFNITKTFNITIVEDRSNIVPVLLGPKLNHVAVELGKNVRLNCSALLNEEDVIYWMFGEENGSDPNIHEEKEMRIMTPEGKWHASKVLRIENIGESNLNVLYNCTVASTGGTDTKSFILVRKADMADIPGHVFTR
In words: SPR, Biacore 8K, 37 C, biotinylated target on SA chip. How it is done: (§1) SPR experiments were performed using a Biacore 8K (Cytiva) at a temperature of 37° C. Biotinylated human or mouse IL-18Rα and IL-18BP were immobilized onto Biacore streptavidin sensor chip (Series S Sensor Chip SA, Cytiva) to yield an Rmax ≤50 RU. Measurements were made with five, three-fold dilutions into HBS-P+ buffer (10 mM HEPES pH 7.4, 150 mM NaCl, 0.005% surfactant P20). Interactions were evaluated using the single-cycle kinetics method and analyzed with the Biacore 8K evaluation software and fit to a 1:1 binding model.
(§2) A subset of variants were selected for analyses of binding kinetics to the L-18 receptor, IL-IM, and the decoy receptor, L-18BP, by surface plasmon resonance (SPR) (Table 8). With two exceptions, all kinetics constants are within an order of magnitude of wild-type IL-18.
For orientation: Surface plasmon resonance follows binding to a sensor surface in real time, without labels.

Assay [2] has as its target T2, Human IL-18BP (isoform A) (human, UniProt O95998 31-194, biotinylated (site not stated)).
T2 construct: also called decoy receptor
T2 sequence: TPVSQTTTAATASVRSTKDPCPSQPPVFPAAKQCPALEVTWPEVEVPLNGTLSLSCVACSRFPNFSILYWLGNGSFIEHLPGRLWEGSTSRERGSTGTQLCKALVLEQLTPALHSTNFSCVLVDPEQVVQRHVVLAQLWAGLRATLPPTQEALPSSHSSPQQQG
The assay can be described thus: SPR, Biacore 8K, 37 C, biotinylated target on SA chip, single-cycle kinetics. How it is done:
as §1, §2

Assay [3] has as its target T3, Mouse IL-18BP (isoform D) (mouse, UniProt Q9Z0M9 29-193, biotinylated (site not stated)).
T3 sequence: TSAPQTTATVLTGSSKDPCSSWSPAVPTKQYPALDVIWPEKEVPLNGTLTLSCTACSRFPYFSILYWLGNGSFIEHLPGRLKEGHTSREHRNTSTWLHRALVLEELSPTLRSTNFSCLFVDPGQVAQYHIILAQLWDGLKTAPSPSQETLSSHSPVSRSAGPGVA
The assay is described as above. As to the method: as §1, §2

Assay [4] has as its target T4, Mouse IL-18Rα extracellular domain (mouse, UniProt Q61098 20-326, biotinylated (site not stated)).
T4 sequence: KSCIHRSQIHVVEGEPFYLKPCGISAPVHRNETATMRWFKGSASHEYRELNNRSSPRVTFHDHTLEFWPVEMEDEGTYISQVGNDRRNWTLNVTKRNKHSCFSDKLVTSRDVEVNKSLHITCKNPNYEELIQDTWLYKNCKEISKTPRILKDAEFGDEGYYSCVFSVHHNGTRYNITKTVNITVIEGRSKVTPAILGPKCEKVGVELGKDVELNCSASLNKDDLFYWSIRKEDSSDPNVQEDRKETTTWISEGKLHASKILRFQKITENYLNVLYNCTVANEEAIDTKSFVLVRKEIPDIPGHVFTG
The assay is described as above. How it is done:
as §1, §2

B1: Human IL-18 N50C (ligand)
chain: YFGKLESKLSVIRCLNDQVLFIDQGNRPLFEDMTDSDSRDNAPRTIFIISMYKDSQPRGMAVTISVKSEKISTLSSENKIISFKEMNPPDNIKDTKSDIIFFQRSVPGHDNKMQFESSSYEGYFLACEKERDLFKLILKKEDELGDRSIMFTVQNED
notes: Made in mammalian cells
As usually defined, the Kd is the concentration at which binding is half-saturated. The low end stands for higher affinity, the high end for lower affinity. As a reminder, the koff is the first-order rate constant of dissociation. As usually defined, the kon is the rate constant with which the complex forms. A high value points to faster complex formation. On to B1, for which the binding result in assay [1] was “no binding (tested: up to 81 nM)”. Further, in assay [2], the Kd is 6.2 pM, the koff was determined as 2.6e-05 s⁻¹ and the kon came to 4.22e+06 M⁻¹ s⁻¹.

B2: Human IL-18 N50C/L174C (ligand)
chain: YFGKLESKLSVIRCLNDQVLFIDQGNRPLFEDMTDSDSRDNAPRTIFIISMYKDSQPRGMAVTISVKSEKISTLSCENKIISFKEMNPPDNIKDTKSDIIFFQRSVPGHDNKMQFESSSYEGYFLACEKERDLFKLICKKEDELGDRSIMFTVQNED
notes: Made in mammalian cells
For the molecule B2, the binding result in assay [1] was “no binding (tested: up to 81 nM)”. In assay [2], this molecule came in with a Kd of 14 pM, a koff of 4.8e-05 s⁻¹ and a kon of 3.6e+06 M⁻¹ s⁻¹.

B3: Mouse IL-18 T44C/L189C (ligand)
chain: NFGRLHSTCAVIRNINDQVLFVDKRQPVFEDMTDIDQSASEPQTRLIIYMYKDSEVRGLAVTLSVKDSKMSTLSSKNKIISFEEMDPPENIDDIQSDLIFFQKRVPGHNKMEFESSLYEGHFLASQKEDDAFKLILKKKDENGDKSVMFTLTNCHQS
notes: Made in mammalian cells
Regarding B3, in assay [3], the Kd worked out at 5 pM, the koff was determined as 1.1e-05 s⁻¹ and the kon worked out at 2e+06 M⁻¹ s⁻¹. In assay [4], this molecule showed a Kd of 5200 pM, a koff of 0.04 s⁻¹ and a kon of 7.6e+06 M⁻¹ s⁻¹.
